The values that follow come from the MegaScale stability set (Tsuboyama et al. 2023).

B1: 6YSE (parent)
chain: HERALMVNRLQKLTRMLRVHPDPKWKQEQQELIKRLK

In the data set the parent is B1. Briefly: folding stability dG (cDNA display proteolysis); higher = more stable. Particulars: PBS, room temperature.
Consider HERALMHNRLQKLTRMLRVHPDPKWKQEQQELIKRLK [V7H], for which the “folding stability dG” value amounted to 1.09 kcal/mol.
Regarding HERALMKNRLQKLTRMLRVHPDPKWKQEQQELIKRLK [V7K], the “folding stability dG” value was determined as 1.05 kcal/mol.
Then HERALMFNRLQKLTRMLRVHPDPKWKQEQQELIKRLK [V7F], with 1.42 kcal/mol.
To HERALMNNRLQKLTRMLRVHPDPKWKQEQQELIKRLK [V7N] belongs 0.506 kcal/mol; to HERALMYNRLQKLTRMLRVHPDPKWKQEQQELIKRLK [V7Y], 1.67 kcal/mol; to HERALMCNRLQKLTRMLRVHPDPKWKQEQQELIKRLK [V7C], 1.96 kcal/mol.
Then HERALMSNRLQKLTRMLRVHPDPKWKQEQQELIKRLK [V7S], with 0.086 kcal/mol.
Take HERALMDNRLQKLTRMLRVHPDPKWKQEQQELIKRLK [V7D]: the “folding stability dG” value is -0.144 kcal/mol.
Take HERALVVNRLQKLTRMLRVHPDPKWKQEQQELIKRLK [M6V]: the “folding stability dG” value was found to be 0.718 kcal/mol.
To HERALRVNRLQKLTRMLRVHPDPKWKQEQQELIKRLK [M6R] belongs 0.36 kcal/mol; to HERALYVNRLQKLTRMLRVHPDPKWKQEQQELIKRLK [M6Y], -0.185 kcal/mol.
Then HERALIVNRLQKLTRMLRVHPDPKWKQEQQELIKRLK [M6I], with 1.8 kcal/mol.
Then HERALSVNRLQKLTRMLRVHPDPKWKQEQQELIKRLK [M6S], with 0.112 kcal/mol; and HERALTVNRLQKLTRMLRVHPDPKWKQEQQELIKRLK [M6T], with 0.188 kcal/mol.
Regarding HERALEVNRLQKLTRMLRVHPDPKWKQEQQELIKRLK [M6E], the “folding stability dG” value turned out to be 0.023 kcal/mol.
To HERALKVNRLQKLTRMLRVHPDPKWKQEQQELIKRLK [M6K] belongs -0.045 kcal/mol; to HERALGVNRLQKLTRMLRVHPDPKWKQEQQELIKRLK [M6G], -0.19 kcal/mol; to HERALLVNRLQKLTRMLRVHPDPKWKQEQQELIKRLK [M6L], 1.46 kcal/mol.
To HERALNVNRLQKLTRMLRVHPDPKWKQEQQELIKRLK [M6N] belongs -0.861 kcal/mol; to HERALWVNRLQKLTRMLRVHPDPKWKQEQQELIKRLK [M6W], 0.832 kcal/mol; to HERALFVNRLQKLTRMLRVHPDPKWKQEQQELIKRLK [M6F], -0.384 kcal/mol.
HERALAVNRLQKLTRMLRVHPDPKWKQEQQELIKRLK [M6A]: the “folding stability dG” value turned out to be 0.574 kcal/mol.
Consider HERALDVNRLQKLTRMLRVHPDPKWKQEQQELIKRLK [M6D], for which the “folding stability dG” value was 0.383 kcal/mol.
Then HERALQVNRLQKLTRMLRVHPDPKWKQEQQELIKRLK [M6Q], with 0.35 kcal/mol; and HERALHVNRLQKLTRMLRVHPDPKWKQEQQELIKRLK [M6H], with 0.07 kcal/mol.
Then HERALMVNMLQKLTRMLRVHPDPKWKQEQQELIKRLK [R9M], with 0.818 kcal/mol; and HERALMVNYLQKLTRMLRVHPDPKWKQEQQELIKRLK [R9Y], with 0.605 kcal/mol.
For HERALMVNFLQKLTRMLRVHPDPKWKQEQQELIKRLK [R9F], the “folding stability dG” value was found to be 0.77 kcal/mol.
Then HERALMVNGLQKLTRMLRVHPDPKWKQEQQELIKRLK [R9G], with -0.612 kcal/mol.
To HERALMVNKLQKLTRMLRVHPDPKWKQEQQELIKRLK [R9K] belongs 0.551 kcal/mol; to HERALMVNWLQKLTRMLRVHPDPKWKQEQQELIKRLK [R9W], 0.91 kcal/mol; to HERALMVNSLQKLTRMLRVHPDPKWKQEQQELIKRLK [R9S], -0.602 kcal/mol.
Then HERALMVNLLQKLTRMLRVHPDPKWKQEQQELIKRLK [R9L], with 0.938 kcal/mol; and HERALMVNCLQKLTRMLRVHPDPKWKQEQQELIKRLK [R9C], with 1.19 kcal/mol; and HERALMVNTLQKLTRMLRVHPDPKWKQEQQELIKRLK [R9T], with -0.04 kcal/mol.
For HERALMVNQLQKLTRMLRVHPDPKWKQEQQELIKRLK [R9Q], the “folding stability dG” value came to 0.621 kcal/mol.
Then HERALMVNILQKLTRMLRVHPDPKWKQEQQELIKRLK [R9I], with 0.734 kcal/mol; and HERALMVNALQKLTRMLRVHPDPKWKQEQQELIKRLK [R9A], with -0.164 kcal/mol; and HERALMVNVLQKLTRMLRVHPDPKWKQEQQELIKRLK [R9V], with -0.415 kcal/mol.
To HERALMVNHLQKLTRMLRVHPDPKWKQEQQELIKRLK [R9H] belongs 0.157 kcal/mol; to HERALMVNELQKLTRMLRVHPDPKWKQEQQELIKRLK [R9E], 0.136 kcal/mol; to HERALMVNRLQALTRMLRVHPDPKWKQEQQELIKRLK [K12A], 1.36 kcal/mol.
Consider HENALMVNRLQKLTRMLRVHPDPKWKQEQQELIKRLK [R3N], for which the “folding stability dG” value is 0.899 kcal/mol.
Then HESALMVNRLQKLTRMLRVHPDPKWKQEQQELIKRLK [R3S], with 0.487 kcal/mol; and HEQALMVNRLQKLTRMLRVHPDPKWKQEQQELIKRLK [R3Q], with 0.786 kcal/mol; and HEWALMVNRLQKLTRMLRVHPDPKWKQEQQELIKRLK [R3W], with 1.59 kcal/mol.
Then HETALMVNRLQKLTRMLRVHPDPKWKQEQQELIKRLK [R3T], with 1.06 kcal/mol; and HEYALMVNRLQKLTRMLRVHPDPKWKQEQQELIKRLK [R3Y], with 1.69 kcal/mol; and HEVALMVNRLQKLTRMLRVHPDPKWKQEQQELIKRLK [R3V], with 1.34 kcal/mol.
HERALMVNRLDKLTRMLRVHPDPKWKQEQQELIKRLK [Q11D]: the “folding stability dG” value came out at 0.958 kcal/mol.
Then HERALMVNRLHKLTRMLRVHPDPKWKQEQQELIKRLK [Q11H], with 1.38 kcal/mol.
In the case of HERALMVNRLFKLTRMLRVHPDPKWKQEQQELIKRLK [Q11F], the “folding stability dG” value is 1.23 kcal/mol.
Then HERALMVNRLWKLTRMLRVHPDPKWKQEQQELIKRLK [Q11W], with 1.5 kcal/mol; and HERALMVNRLVKLTRMLRVHPDPKWKQEQQELIKRLK [Q11V], with 1.48 kcal/mol; and HERALMVNRLSKLTRMLRVHPDPKWKQEQQELIKRLK [Q11S], with 1.1 kcal/mol.
To HERALMVNRLIKLTRMLRVHPDPKWKQEQQELIKRLK [Q11I] belongs 2.12 kcal/mol; to HERALMVNRLYKLTRMLRVHPDPKWKQEQQELIKRLK [Q11Y], 1.41 kcal/mol; to HERALMVNRLLKLTRMLRVHPDPKWKQEQQELIKRLK [Q11L], 1.69 kcal/mol.
Then HERALMVNRLMKLTRMLRVHPDPKWKQEQQELIKRLK [Q11M], with 1.73 kcal/mol.
As to HERALMVNRLEKLTRMLRVHPDPKWKQEQQELIKRLK [Q11E], the “folding stability dG” value was 1.08 kcal/mol.
To HERALMVNRLNKLTRMLRVHPDPKWKQEQQELIKRLK [Q11N] belongs 1.34 kcal/mol; to HERALMVNRLGKLTRMLRVHPDPKWKQEQQELIKRLK [Q11G], 0.69 kcal/mol; to HERALMVNRLTKLTRMLRVHPDPKWKQEQQELIKRLK [Q11T], 1.09 kcal/mol.
Regarding HERALMVNRLAKLTRMLRVHPDPKWKQEQQELIKRLK [Q11A], the “folding stability dG” value came out at 1.54 kcal/mol.
To HERALMVNRLKKLTRMLRVHPDPKWKQEQQELIKRLK [Q11K] belongs 2.12 kcal/mol; to HERALMVNRLRKLTRMLRVHPDPKWKQEQQELIKRLK [Q11R], 2.14 kcal/mol.
To HERALMVNRLCKLTRMLRVHPDPKWKQEQQELIKRLK [Q11C] belongs 2.24 kcal/mol.
